Assay results: publication PMC10197177

Tested on: BG4 (anti-G-quadruplex antibody)
Test: sandwich ELISA
Conditions: K1 pre-bound to immobilized wild-type spike, ELONA: 20 mM Tris, 5 mM KCl, 2 mM MgCl2, 0.5 mM CaCl2, pH 7.4, room temperature, BG4 sandwich ELISA: Methods give 20 mM Tris, 5 mM MgCl2 …

Q: For “AATGGATCCACATCTACGAGCTCGAACGCCCGGAGGAGACGGGGGCAGGGCGTGTTCACTGCAGACTTGACGAAGCT [K1 (truncated working aptamer)]”, which Kd is on record?
A: The Kd was 1.77 nM.
